This data set is described as follows: soluble on expression in E. coli; label from the status in PepcDB or PDB records.
As to “MSLKILDCTLRDGGYYTNWDFNSKIVDAYILAMNELPIDYLEVGYRNKPSKEYMGKFGYTPVSVLKHLRNISTKKIAIMLNEKNTTPEDLNHLLLPIIGLVDMIRIAIDPQNIDRAIVLAKAIKTMGFEVGFNVMYMSKWAEMNGFLSKLKAIDKIADLFCMVDSFGGITPKEVKNLLKEVRKYTHVPVGFHGHDNLQLGLINSITAIDDGIDFIDATITGMGRGAGNLKMELLLTYLNKHHGLNVDFNVLGNIITTFTPLLEKYQWGTNLPYMLSGANNIPQKEVMDWVTNRVYSFNSIIRALDNRKNKMEDNAKYPLLNIKNKFDRVVIIGGGFNAIEHKEAIKSFIETHTNTAIIFATARYAREYLDVNAPHFYCLVGNEGHRLTHNINPQNLSGICVLPPYPRPMGTEVPEYAKNVTFELENITFIDQYKDSVTTIALQLAILLTDQDIYLVGYDGYPGNVLSEKEMALTNENRTIFATYTTISGKILKSLTPSIYKEIEVVSVYQFEGHHHHHH”, the “soluble on expression in E. coli” value is recorded as “soluble”.
Take “MDLFPDEVYVFTPKGHIMELPKGATPVDFAYTVHSGVGNSCVAAKVNRRLVPLSIPLSNGQTVEIITAPGAHPNPAWLEHHHHHH”: the “soluble on expression in E. coli” value was “not soluble”.
“MTVVNEYRPVEVFFGEGAVKKAGEVGRRFGFKALIVTGRKSTKESGALDKLINSLKQNQIEYVVFDEITPNPTDKQVNKGAEIAVNEKVDFIVGIGGGSVLDAAKAISIVSSNEGYAWDYVRYPEGSRLIPFLNRPVITIPTTAGTGSEVNRYSVLTNPMTKEKMVISHSLNYPKVALVDPELTYSMPPRLTALTGFDALMHALESLTNKRENFIAEEYSVKAIELIRKWLPVAFEEPENKEARRYMSYAAMLAGIAIDHLGVALIHAMEHPVSGHYPEVAHAEGLSALAPYITAFNYRGNPEKYALFARLMGEEEKPHKAVDALVKFIERFSLPKTLKELGVEKEKLPRLAEDVYMCARHSFAVNPVEVGMEEVEELYERAYEGRL”: the “soluble on expression in E. coli” value is “soluble”.
For the sequence “MANPFSKAWKYLMALFDSKIEENADPKVQIQQAIEDAQRQHQELSQQAAAVIGNQRQLEMQLNRRLAEIEKLQGNTRQAIQLADKARAEGNIQKATEYENAAEAFAAQLVTAEQGVEDTKQLHDQALQQADAAKKAVERNAMVLQQKVAERTKLLSQLEQAKMQEKVAESIQSMNSISNRDTPNLDQVREKIERRYANALGTAELAQNSVQGRMAEVEQAGIQLAGHSRLEQIRAEMSGGQLGAGNSATQQSIESAQQATPSAADDAVARKMRELRGEA”, the “soluble on expression in E. coli” value is recorded as “not soluble”.
Consider “MINRTLKQVEQMINGTGLAEQYEGITIQGVSIDTRKIEKGNLYVPIQGERFDGHAFVDKAVENGAVATLWVKDVANPPENLPVIFVEDTLSALQMLAKNYRDQLDVKVIGVTGSNGKTSTKDIVTSLLATKFKVQKTEGNFNNHIGLPLTILNLEENTEVAVLEMGMSSRGEIEFLSKLARPNAAIITNIGEAHLMDLGSREAIAEAKLEIVTGLQEGGVFVYNGDEPLLTNRVPEMNLIAETVTFGDARANDYYPTTVTLQATGTHFKMNREENISFYLPVLGKHNVYNTLASMAIAKYFGVTWEEMKEGLVTLQMTGMRMEIVKTDSGLTIINDAYNASPTAMEAAFHLMNGLDGFSKKIVVLGDMLELGDQEVQFHYEVGKLIDPAKISYVFTYGKLGAQIAEGAKINFPNERVKAYDNKEELVKELQAVVDTKDVVLVKASRGMKLEEVITMLK”, for which the “soluble on expression in E. coli” value was “not soluble”.
Regarding “MTYRIVLKSDPEKRFKNIRACKDEPMQMVVRNINNGADYVHPEQDVEVFSVKTANNNDLVCVKCTPDSYSSNPAVAEQVVLFCQPNSSDLGGFLQPNSMNFVTYANVFETDLYAFDYSGYGFSSGTQGEKNVYADVRAVYEKILEMRPDKKIVVMGYSIGTTAAVDLAATNPDRLAGVVLIAPFTSGLRLFSSKPDKPDTCWADSFKSFDKINNIDTRVLICHGDVDEVIPLSHGLALYEKLKNPVPPLIVHGANHHTILSGKYIHVFTRIANFLRNETLVSCRSAEVDSSQQQQQLSSKRTENE”, the “soluble on expression in E. coli” value was “not soluble”.
Take “MGSDKIHHHHHHMCNISHSQVQYLATKGDGDLPAGTAAGTGRTRTFTLEEARIWVQKVSDIYQTPLVTRLKEPDGKIIITAQLKGGSAKTTTTMCLAQGLSLRGRKVLVLDLDPQASLSELCGLYAEKDVTPEDTVLPYIYDQEIEGGLEARVQSTYWDGIDVIPAHTELIGAEFHLPAMQKMRPGFRFWTVLRQGLEPLRKKYDYILMDTSPSLSYLNLNALMAADAMVMPMVPENLDFISSLSFWRLFSDVSKSFIKYEKDKKYDFVSLILSRVDYGRNSSAPIVRAWAQSAYENWLHSIEVPASSVMSTGALAFSTVFDISSTHSASKSLQRVRQPLIDYCRWVDEIYSEKWRSAQ”: the “soluble on expression in E. coli” value is “not soluble”.
On to “NATTLPEALKLMQYIGDAIGTIRDPQELFRTVTDKLRLLFAFDSAVIITIDRERREASVFFEMLRFELPEQLRHQTRSIAGTWLEGHLDDRTVTVASIARDIPSFGADGAPLLWTLHELGMRQIVLSPLRSGGRVIGFLSFVSAEEKLWSDGDKSLLSGVSSSIAIAVSNALAYEELRQREAETSMQLAINNALFTI”, for which the “soluble on expression in E. coli” value is on record as “soluble”.
For “MTDVRHCPAVLIAAPASGQGKTTVTAALARLHRNRGRKVRVFKCGPDFLDPMILERASGAAVYQLDMWMVGEQESRRLLWEAAGEADLILIEGVMGLFDGTPSSADLARHFGVPVLGVIDGTAMAQTFGALALGLARYQPDLPFAGVLANRVGTLRHAQLLEGSLTEGLRWYGALSRETDIELPSRHLGLVQASELNDLDLRLDAAAEALASSCQVELPPAVSFAAPTPVACAPLLKGVRIAVARDEAFAFTYGASLDLLRAMGAQLSFFSPIHDTQLPDADSLYLPGGYPELHHQALARNSSMLQAIRAHHAAGKPLLAECGGMLYLLDSLTDVEGQRAELLGLLPGDAVMQKRLAALALQAVDLPEGSLRGHTYHHSLTSTELLPIARGLSPNGGRGAEAVYRQGRMTASYVHFYFPSNPAAVAALFAPGAPVEPVLAEGVAGELEHHHHHH”, the “soluble on expression in E. coli” value is given as “not soluble”.
For “TSTDAAGGDSYRVGINQLVQHPALDAATTGFKEAFEEAGVDVTFDEQNANGEQGTALTISQQFASDNLDLVLAVATPAAQATAQNITDIPVLFTAVTDAVSAELVDSNEAPGGNVTGTSDIAPIEQQLELLQQLVPDAKSIGIVYASGEVNSQVQVDEVTKAAEPLGLSVNTQTVTTVNEIQQAVEALGDVDVIYVPTDNMVVSGISSLVQVAEQKQIPVIGAESGTVEGGALATLGIDYTELGRQTGEMALRILQDGEDPATMPVETATEFTYVINEDAAERQGVEIPQEILDKAERV”, the “soluble on expression in E. coli” value was “not soluble”.
Take “MGSDKIHHHHHHMRALLSGYYGKGNGGDEALLATLLQMLPSHVTPVVLSGNPEETSDRYGVESHNRMSLTSVLPALRSCDAFIWGGGSLIQDVTSSISPFYYGGLMALAQKMGLKTVAWAQGIGPLVRPQTRWLAQHNFSGCTTVSVRDRVSAALLADWQIPYILAPDPVWALQAKPFPELANLPTPRIAVTLRNHPQLTAPRLANLTQALVSLQKSTQAFILLLPFQKSEDLAIAQAIQPQLKDVSEIVCIEDPQILKGVFRGVEMAIGMRLHSLIMAASEGCRCFALSYDPKINRLMEDLAIPGWDLANLPDNANVISKTWIDFYTNAQPLASEKITTLVEGAFMHRELLRKALGRIN”: the “soluble on expression in E. coli” value is “not soluble”.
As to “MKIEKINENKIKVTISIDDLLERNIDLDTLNYNTPAAQELFWDMMEQAEIQFGFDASDSQICVEAIPDPEEGFVIIITKLDEDGEFESIHKYIKNRFRKSDLRVRKRNSRVSSSIVIYFFNNFEDLCSVCQKLRDIYSGESTLYRLKGVYYLVLTKNSWSVANLRSFEPILSEFGTKVSNVSFYEGYLNEHGEKIIEYNAVETINDYFHR”, the “soluble on expression in E. coli” value is on record as “soluble”.
For the sequence “MSLFFHSDVLSVSELNAFAKSLLENHLAGLWIAGEVSNLTRAASGHYYFSLKDSRAQVRCAMFKGAAVRLAKPLKEGDHIEVSGKISIYEARGEFQITVNEVRLKGLGQLYEAYERLKAQLQAEGAFAAERKKPLPVRPQCIGIVTSLAAAALRDVVTTLKRRAPEIPVIVYPTPVQGAGSELQIAQAIKTASQRAECDVLIVCRGGGSIEDLWAFNEEPVVRAIESCTVPVVSGVGHETDFTLADFVADMRAPTPTGAAELVSPNRQESLHRLAQAQCRLKTVLEQRYFDASQKLDWLARQIRHPRQKLDEQRASIGKLAQTLSYSMTQNVRTHTARFERQTQALKHCRPDVSVCKKNIDRFQTALSHAFHQLLTHRRQSLTAQAALLEAVSPQHILERGFSVVKNTRGQVIRNADVLKQGQKLHIIFADGETDVRVSKEQGQQDLFDCIEGHHHHHH”, the “soluble on expression in E. coli” value is “not soluble”.
In the case of “MSLKVVFVSYEVFPFAKVGGLADVAGTLPKYLKKHGVDVTIVMPKHRIVEKNAEKFGYEIKKVAESLSVSHVKTDQKFDIYESVLPGSDVKTYFVANDYYFSAEDVYAGPDLGEQAIFFCAATLDLVKHLDLKPDIVHVNDWQTALIPVYLKTVYRDDPYFSRTATVLTIHNLGYQGVFDPKYLSFAGLPDYVYTIDGLEFYGQLNFLKGGIVFSDVINTVSPTYAEEIQTEEYGEKLDGVLRMRSKDLYGILNGIDYELYNPATDRYIYVNYDVNRLELKWENKVKLQEELGLPVNKETAVAGLISRLVPQKGLDLLVDVMDYLTLFDLQIVVLGTGDEQYENAFRKFQERYPDKVSANIKFDVELAQKIYAGADIFLMPSRYEPCGLGQMFSMRYGTIPVVRYTGGLADTVKEYDPQSMEGTGFGFKKYDSAHLLKAVSKALHFYYREKDHWRRIMTNAMNTDLSWDRSAKEYVDLYKKALAKVGREGHHHHHH”, the “soluble on expression in E. coli” value is on record as “soluble”.
Consider “METIKALEKFMEFDRLQKDCSDKLDRERERRMKAEREIARKNCGGNPCERELKSERSNVKRLEYQLDAEKEKVKFYKRELERDRYLSSRYLTSSSDPHEKPLPNYTFPRIKNVSPLTTEATGSVEVAPPSTDVTEPISDVTPSVDVEPEHPPAF”, for which the “soluble on expression in E. coli” value was “not soluble”.
For “MGSDKIHHHHHHMIGYGLPMPNQAHFSASFARPSTPAAKCMHHIRLGQQLIRNELVEATGLSQPTVTRAVTALMQAGLVRERPDLTLSSGPGRPNIPLELAPSPWIHAGVAIGTKSSYVALFDTKGRTLRDAMLEISAADLDPDTFIEHLIAGVNRLTTGLDLPLVGIGVATSGKVTNAGVVTASNLGWDGVDIAGRLNYQFSVPATVASAIPAIAASELQASPLPHPEQPTPITLTFYADDSVGAAYSNDLGVHVIGPLATTRGSGLDTLGMAAEDALSTQGFLSRVSDQGIFANSLGELVTIAKDNETAREFLNDRATLLAHTAAEAAETVKPSTLVLSGSAFSEDPQGRSVFASQLKKEYDADIELRLIPTHRENVRAAARAVALDRLLNEPLTLVP”, the “soluble on expression in E. coli” value is “not soluble”.
As to “MGSDKIHHHHHHMLQGKVSVIVPAYNAARLLERCVRSITGQTYPALEVIVVDDGSKDDTGKIADQLAAEDSRIRVVHKTNGGVSAARNDALKLVEGEWITFVDSDDYLEPDFLRSLLDGEVADLVIGGYHTVGANEIPSANYPTDTAHSPEAIKRALEARLTDMTFLCPWGKLFRTSLVRSLRLIFNTEMKVGEDVVFVWSYLAHCSSLAFKQGQGYDYYTEPGADFKYALDETVSLQTIERILGVLDGLKRNFGMDTEHARCHVLNYYIWLFKLYVNRNYLLRDLARMKNFFYYPLILDYYKTYRRTSKDKLLVYLLLKLRLSGVLYLMIKLYY”, the “soluble on expression in E. coli” value is listed as “not soluble”.
Regarding “MGHHHHHHSHMEYHTMIRELILDGSLQLIQEGLKSGFLYPLFEKQDKGSKPITLPLDACSLSELCEMAKHLPSLNEMEHQTLQLVEEDTSVTEQDLFLRVVENNSSFTKVITLMGQKYLLPPKSSFLLSDISCMQPLLNYRKTFDVIVIDPPWQNKSVKRSNRYSYLSPLQIQQIPIPKLAAPNCLLVTWVTNRQKHLRFIKEELLSLLVCGGSC”, the “soluble on expression in E. coli” value is “not soluble”.

Source of the values: the DeepSol protein solubility set.
